From US20140303084A1 (Biogen, published 2014)
Primed or numbered codes have the meaning given here. Ends that are not written are not given here. * marks the point of attachment. Biotin = O=C1N[C@H]2[C@H](CS[C@H]2CCCCC(=O)*)N1; PEG2(3) = PEG2 spacer carrying biotin on Lys

target: human Factor IXa (human, UniProt P00740 47-191; P00740 227-461); test: cell-based or functional assay

Binder | EC50 [µM], FXa generation assay [µM]
{Biotin-PEG2(3)}-LYTAWIKCQFARLPGCALSGRW (cysteine pairing not given here) [Biotin-PEG2-LYTAWIKCQFARLPGCALSGRW] | > 10
HYARVQLRCLDGYCWLLTKSRM | > 10
SGRGGKLTCQASFCQLFGNGLS | < 0.5
AWPYHKPTCLASQCWQFLAQGS | > 50
HMQWGKLPCLASYCWLFWYGIG | > 1
SYGRTKLTCLASSCWLFGQVHG | > 10
RYQRARLTCLASYCGLLFSMSA | > 15
GGALQQLTCPASYCWLFPMEHS | > 10
AVAINKVPCVASYCQLFESKIH | > 20
GIQGSEVACRASFCRLFEQGHV | > 50
GFGSRKLTSLASYGWLIQDRLP | > 50
APPGGKRMCLVSGCQLFPWSAS | > 50
QDGDGKLTCRASYCRRFLVGVH | > 50
AQLRRKLTCLASYCWLFGFFSP | > 1
EGRRDKLTCLASYCWLVGHGQH | > 25
YARDSTLTCQARTCQLVDYLGP | > 50
WHERQQLTCLASYCGLFVGQVA | < 0.5
RFQTTQLTCLGSASCLFNLSVR | > 1
RRAPGKLQCLASYCWLFWTGAA | > 1
RSFTSELTCLASSCRRFHHVPP | > 20
LLQIPNLTCLGSYCWLDNGVYA | > 50
QGQARKLACLASYCWLFPSSAG | > 50
LRQRLAKTCVASYCWLFSLVAS | > 10
GEGGGKLSCVAIQCGLFKGLGR | > 50
GVEDRQLTCLASSCWVFSRHSV | > 1
